In paper PMC10710061 one finds Kd and stoichiometry N data, which are given here for 2 molecules.

For experiment [1], the target named is ZnF domain of Arabidopsis thaliana SPL5, residues 60 to 127 (Arabidopsis thaliana) (UniProt Q9S758). As to the kind of experiment: ITC; 200 μM SAP05 from the syringe into 20 μM SPL5^ZnF in the cell; 25 °C, 20 mM HEPES pH 7.5, 150 mM NaCl; one-site binding model. (In general: Isothermal titration calorimetry measures the heat released or taken up as one component is titrated into another.)

Experiment [2] deals with SAP05 D66E (purified, for ITC) (Aster Yellows phytoplasma strain Witches Broom (AYWB)). As to the kind of experiment: ITC; SPL5^ZnF from the syringe (250 μM for wild-type SAP05, 200 μM for the SAP05–Rpn10^vWA complex or SAP05 mutants) into 20 μM partner in the cell; 25 °C, 20 mM HEPES pH 7.5, 150 mM NaCl; one-site binding model.
Experiment [3] addresses SAP05 of Aster Yellows phytoplasma strain Witches Broom (AYWB), residues 33 to 135 (Aster Yellows phytoplasma strain Witches Broom (AYWB)). The description is as above.
Experiment [4] concerns the target SAP05 H58A T60W (purified, for ITC) (Aster Yellows phytoplasma strain Witches Broom (AYWB)). Described as above.
Experiment [5] deals with SAP05–Rpn10^vWA complex (Aster Yellows phytoplasma strain Witches Broom (AYWB) | Arabidopsis thaliana) (UniProt P55034). The description is as above.

In general, Kd refers to the concentration at which binding is half-saturated. The low end stands for higher affinity, the high end for lower affinity. A word on the stoichiometry N: it is a count of units in the complex or per binding partner. Take “SAP05 of Aster Yellows phytoplasma strain Witches Broom (AYWB), residues 33 to 135 (natural protein)”: in experiment [1], the Kd came out at 450 nM and the stoichiometry N came to 1.

B1: ZnF domain of Arabidopsis thaliana SPL5, residues 60 to 127 (domain or fragment)
chain: SRLCQVDRCTVNLTEAKQYYRRHRVCEVHAKASAATVAGVRQRFCQQCSRFHELPEFDEAKRSCRRRL
Consider B1, for which the Kd in experiment [2] amounted to 17700 nM; in experiment [3], 520 nM; in experiment [4] it was 3600 nM; in experiment [5] it was 650 nM. In experiment [5], this molecule gave a stoichiometry N of 1.
